This is an account of results in publication PMC4346803, “Supramolecular protein assembly supports immobilization of a cytochrome P450 monooxygenase system as water-insoluble gel” (Scientific Reports, 2015).

In data set [1] the target is PTDH-PCNA3_(R112C/T180C)-P450cam (Pseudomonas stutzeri | Sulfolobus solfataricus | Pseudomonas putida). As to the kind of experiment: dynamic light scattering; diameters of the PTDH-fused proteins compared with their counterparts without PTDH fusion.
The target is the same in data set [2]. Nature of the data set: SEC; non-denatured fusion proteins, masses estimated against globular protein standards.
In data set [3] the target is PTDH-PCNA1_(G108C)-PdR (Pseudomonas stutzeri | Sulfolobus solfataricus | Pseudomonas putida). Nature of the data set: dynamic light scattering; diameters of the PTDH-fused proteins compared with their counterparts without PTDH fusion.
Data set [4] shares this target. Nature of the data set: SEC; non-denatured fusion proteins, masses estimated against globular protein standards.
Data set [5] concerns the molecule itself. The data set is described as above.

As for PTDH-PCNA3_(R112C/T180C)-P450cam, the stoichiometry N in data set [1] and in data set [2] was 2 throughout.

Turning to PTDH-PCNA1_(G108C)-PdR, the stoichiometry N in data set [3] and in data set [4] was 2 each time.

B1: PTDH-PCNA2_(L171C)-PdX (other)
chain: MLPKLVITHRVHDEILQLLAPHCELMTNQTDSTLTREEILRRCRDAQAMMAFMPDRVDADFLQACPELRVVGCALKGFDNFDVDACTARGVWLTFVPDLLTVPTAELAIGLAVGLGRHLRAADAFVRSGEFQGWQPQFYGTGLDNATVGILGMGAIGLAMADRLQGWGATLQYHARKALDTQTEQRLGLRQVACSELFASSDFILLALPLNADTQHLVNAELLALVRPGALLVNPCRGSVVDEAAVLAALERGQLGGYAADVFEMEDWARADRPRLIDPALLAHPNTLFTPHIGSAVRAVRLEIERCAAQNIIQVLAGARPINAANRLPKAEPAACMKAKVIDAVSFSYILRTVGDFLSEANFIVTKEGIRVSGIDPSRVVFLDIFLPSSYFEGFEVSQEKEIIGFKLEDVNDILKRVLKDDTLILSSNESKLTLTFDGEFTRSFELPLIQVESTQPPSVNLEFPFKAQLLTITFADIIDELSDLGEVLNIHSKENKLYFEVIGDCSTAKVELSTDNGTLLEASGADVSSSYGMEYVANTTKMRRASDSMELYFGSQIPLKLRFKLPQEGYGDFYIAPRADSKVVYVSHDGTRRELDVADGVSLMQAAVSNGIYDIVGDCGGSASCATCHVYVNEAFTDKVPAANEREIGMLESVTAELKPNSRLSCQIIMTPELDGIVVDVPDRQW
Consider B1, for which the stoichiometry N (as a rule, the number of molecules, sites or subunits per partner or assembly) in data set [5] is 2.
